Assay results published in US20090214427A1 (LICENTIA, published 2009).
Positions of bridges follow the written chain, without caps; N, C: chain ends. Non-standard residues stand in square brackets, D forms with d. No end group written: not given here. Sar = CNCC(=O)O

B1: phage carrying peptide HK2p03 as part of pIII protein (peptide)
chain: PARRPFPVTA
notes: also called phage p03; HK2p03 phage clone (X10 library); not shown: pIII coat protein of fUSE-5 filamentous phage
B2: phage carrying peptide HK2p06 as part of pIII protein (peptide)
chain: CYRMPTCMQRD
modifications: disulfide (positions not given here); also: displayed as fusion to phage pIII protein
notes: also called phage p06; HK2p06 phage clone (X11 library); not shown: pIII coat protein of fUSE-5 filamentous phage
B3: phage carrying peptide HK2p02 as part of pIII protein (peptide)
chain: AARRPFPAPS
notes: also called phage p02; HK2p02 phage clone (X10 library); not shown: pIII coat protein of fUSE-5 filamentous phage
B4: phage carrying peptide HK2p04 as part of pIII protein (peptide)
chain: CFRQGCWVIT
modifications: disulfide (positions not given here); also: displayed as fusion to phage pIII protein
notes: also called phage p04; HK2p04 phage clone (X10 library); not shown: pIII coat protein of fUSE-5 filamentous phage
B5: synthetic peptide HK2p06 (CYRMPTCMQRD) (peptide)
peptide: CYRMPTCMQRD
modifications: disulfide 1-7 (inferred)
notes: Two Cys residues, said to indicate a cyclic structure

These binders were tested against T1, recombinant wild-type (wt) human kallikrein 2 (human, UniProt P20151 25-261) (assay: phage display selection on hK2 captured by MAb 5E4, four rounds).
T1 construct: Enzymatically active hK2; in phage assays captured on wells by MAb 5E4, in enzyme assays in solution; also called hK2; HK2
Procedure: The phage display libraries were constructed in fUSE-5-phage as previously described (Koivunen et al. 1994). We screened libraries with the structures CX₇C, CX₈C, X₉, X₁₀, X₁₁, CX₃CX₃CX₃C, CX₈, CX₉, X₂CX₁₁C, where C stands for cysteine and X for any of the randomly occurring amino acids. Screening was performed according to Koivunen et al. (Koivunen et al. 1994). We screened each peptide library against hK2, which was captured by MAb 5E4 coated into microtiter wells (Wu, Leinonen et al. 2000). MAb 5E4 binds PSA and hK2 in an equimolar manner and reacts with an epitope which is remote from the active site of these enzymes (Stenman et al. 1999), (Leinonen, Wu et al. 2002). Twenty four ng of hK2 was incubated in antibody-coated wells for 30 minutes at 37° C. in Tris/NaCl buffer followed by washing of unbound hK2. An aliquot of phage libraries containing 10¹⁰-10¹¹ transducing units was added into the microtiter wells in 100 μL of 1% BSA in TBS, which was composed of 0.05 mol/L Tris buffer (pH 7.7) containing 0.154 mol/L NaCl and 8 mmol/L NaN3. Incubation took place at 4° C. with gentle shaking for 16-24 hours in the first round and for 1 hour for the following three rounds. The phages were removed and wells were washed with TBS containing 0.5% Tween 20. For elution of the bound phage 0.1 M Glycine-HCl, pH 2.2 containing 0.1% BSA was added. The eluted phage suspension was neutralized with 1 M Tris buffer, pH 9.0, amplified by infection of Escherichia coli K91 cells and purified by polyethylene glycol precipitation (Wu, Leinonen et al. 2000). After four rounds of selection and amplification single stranded DNA from individual phage clones was prepared. The peptide sequences were determined after amplification by PCR (Koivunen et al. 2001). The relevant part of the viral DNA was sequenced with an ABI 310 Genetic analyzer and Dye Terminator Cycle Sequencing Core Kit (PE Applied Biosystems, Foster City, Calif., USA) using the primer 5′-TAATACGACTCACTATAGGGCAAGCTGATAAACCGATACAAT-3′ (SEQ ID NO: 130).
B1: binds. B2: binds. B3: binds. B4: binds.

Each binder was assayed against T1, recombinant wild-type (wt) human … (assay: competition phage IFMA on hK2 captured by MAb 5E4; 5 µM synthetic peptide).
Procedure: The phage IFMA was performed essentially as described (Wu, Leinonen et al. 2000). In this assay, 50 ng of hK2 in 200 μL of assay buffer was captured onto wells coated with MAb 5E4. After washing, 2.5 μL of phage (10⁸-10⁹ infectious particles) and 200 μL assay buffer were added to wells. After incubation for 1 h, the wells were washed and filled with 200 μL of assay buffer containing 100 ng Eu-labeled anti-phage polyclonal antibody recognizing the M13 coat protein of the phage. After incubation for 60 min, the wells were washed 4 times, and enhancement solution (Perkin Elmer-Wallac) was added. The fluorescence was quantified with a Victor fluorometer in time resolved mode (Perkin Elmer-Wallac).
The relative binding sites of the peptides on hK2 were mapped by competition experiments with chemically synthesized and phage peptides. The protocol was based on the IFMA method described above except that phages and the synthetic peptides were reacted together with hK2. Briefly, each of the synthetic peptides at 5 μM concentration was added into the wells in which hK2 had been captured by MAb 5E4. After incubation for 30 min each phage was added. After 1 h incubation, the wells were washed and the assay was as described above for IFMA.
B5: binds.

The binders below were run against T1, recombinant wild-type (wt) human … (assay: cell-based or functional assay).
Work on SRFKVWAAAG-OH [SRFKVWAAAG (SEQ ID NO:62)] yielded an inhibition of 30%. With GAARR[Sar]F[Sar]APG [GAARR-Sar-F-Sar-APG (SEQ ID NO:54)] the inhibition was 0%. SRAKVWWAAG-OH [SRAKVWWAAG (SEQ ID NO:58)] showed an inhibition of 0%. SRFKAWWAAG-OH [SRFKAWWAAG (SEQ ID NO:60)] showed an inhibition of 39%. SRFKVAWAAG-OH [SRFKVAWAAG (SEQ ID NO:61)] gave an inhibition of 10%. For GAARRPF[Sar]APG [GAARRPF-Sar-APG (SEQ ID NO:53)], the inhibition was 24%. SRFAVWWAAG-OH [SRFAVWWAAG (SEQ ID NO:59)] was tested, and the inhibition was 0%. Binder ARFKVWWAAG (S1A variant of HK2p01) [ARFKVWWAAG (SEQ ID NO:56)] has an inhibition of 94%. In the case of GAARRPFPAPG [GAARRPFPAPG (SEQ ID NO:51)], the inhibition is reported as 69%. Binder GAARR[Sar]FPAPG [GAARR-Sar-FPAPG (SEQ ID NO:52)] has an inhibition of 0%. With AAARRPFPG [AAARRPFPG (SEQ ID NO:48)] the inhibition was 37%.

The binders below were run against T1, recombinant wild-type (wt) human … (assay: Lineweaver-Burke plots; cleavage of 0-400 µM S-2302 by 0.2 µM hK2 at 4 µM peptide).
Work on ARFKVWWAAG (S1A variant of HK2p01) [ARFKVWWAAG (SEQ ID NO:56)] yielded a Ki of 1410 nM.

Target: T1, recombinant wild-type (wt) human …
Test: cell-based or functional assay
Remark: another data set of the same source
For SRFKVWWAAG [synthetic peptide HK2p01 (SRFKVWWAAG)], the “IC50 for hK2 inhibition (cleavage of S-2302)” value was 3400 nM. With ARFKVWWAAG (S1A variant of HK2p01) [ARFKVWWAAG (SEQ ID NO:56)] the “IC50 for hK2 inhibition (cleavage of S-2302)” value was 2200 nM.
